Experimental data: the supplement of paper PMC12042874
± gives the uncertainty stated by the source.

Test: amyloid nucleation score (Sup35N fusion, yeast selection) (log enrichment); library NNK1; higher = more nucleation; inactive = no reads after selection
How it was run: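 Nucleation score is defined as the DiMSum log enrichment of output over input reads, with centring on the mode score of non-aggregating sequences. A minimum of 100 input reads was required for each sequence. Reads came from Illumina sequencing of plasmid inserts from psi-negative yeast expressing Sup35N fused to peptides of 20 random codons, induced with 100 μM copper sulfate for 24 hours and grown 7 days at 30°C on medium lacking adenine and uracil.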

Substance | amyloid nucleation score
ICDRAWRCFKTKSTQPVTVS | -0.19 ± 0.36
QNLVLVKPEVFGTSRLLCGH | 0.184 ± 0.53
LRYAG | -0.87 ± 0.53
IIYDLLCYSWRMFWL | 2.27 ± 0.1
YYSFGRFKYTILL | -0.242 ± 0.6
VVASSCSFNRRLESSAGYL | 0.744 ± 0.37
GSMQQNSFREMEPRDSTGGA | -0.844 ± 0.94
CRATTP | 0.282 ± 0.49
RSLLLALFAICYVCGGYEWV | 1.24 ± 0.85
RPGGGAACAVRGRLPVCQLG | -1.13 ± 0.96
TPTTLKDYYPRAGNINRMTY | -0.15 ± 0.28
GAGHGELDKWNPSDGPQLLW | -0.096 ± 0.77
RPYGPYALLWSISIYAWELL | 0.508 ± 0.61
LPTSTVSCQNWDTLLTLCSG | -0.094 ± 0.77
VNLGKNFTQLLIGRCVSKVR | 0.417 ± 0.33
YFGMSY | -1.38 ± 0.66
EIYGKCLNPIGL | 0.53 ± 0.52
NLINSIGIVEAWEILPASSR | 0.124 ± 1.2
GTTHRDS | -0.263 ± 0.35
CHIWPDVLNVCAILGDLRKR | 1.18 ± 0.16
CSFYHVFRCSVGFDVFFSTD | -0.259 ± 0.41
WRTSEFSHSLVKYVLSRVLT | 1.31 ± 0.56

Substance | amyloid nucleation score
FSMGQQMFVLVLSCFLVLWC | 0.832 ± 0.65
YFCPLKCVMPENDCPFPMVM | 0.416 ± 0.25
VAGAVNNSWWGLSNVARAKR | 0.082 ± 0.54
HCQVQHLTQFMWVIVMRTRD | 3.5 ± 0.14
CTLSYSCFLVVLSFYGQSSF | 0.366 ± 0.24
DVLLPSLTEVAINFSSVTLK | -0.242 ± 0.41
YVLFFSPCT | inactive
NDYTELEIFCNLLRLMFWVV | -0.162 ± 0.48
NSKCSLIQCTGPLVRERRSY | 0.058 ± 0.31
NGLWVGHLVLDGIYSA | -0.564 ± 0.33
SAASPFFFSDCGWPSGILNY | 1.26 ± 0.67
YVMDYSD | 0.096 ± 0.61
FTSLNVRKLRGACRTTSSHG | -0.077 ± 0.61
VGLISALANTGMFRTSNCVF | 0.426 ± 0.5
NDLFMESLL | 0.025 ± 0.43
SISWVWAAPIRAI | -1.59 ± 2.4
RCMLGLLNFIESIHGGR | 4.89 ± 0.095
CFIFFPSKIHPLICTKTRAK | 0.446 ± 0.34
IDYRIDCVCFLCSVREEAYR | 7.278 ± 0.047
LELLSSWWYSSIYTGTDCVT | 2.08 ± 0.25
MGLSNSDADGRTLRNEHVKS | -1.35 ± 2.1
FRLVYNNFAIT | -1.78 ± 2.4

Substance | amyloid nucleation score
SSNLRKTFMSAMHVSSCMV | 0.396 ± 0.56
TLLIMLLYKSTILCVQPDLM | 0.032 ± 0.6
QDFVMSYLCRLKGWLDKRYR | 0.472 ± 0.25
SFFWVYHRYSMPRSLCVM | inactive
IRDDCTYYVSAE | 0.634 ± 0.23
GYGSHNEAGKLGVGGEVCYG | 3.85 ± 0.065
SMMEAFDPKYAVSWSVESLT | 1.26 ± 0.67
LMFAISKIKIF | inactive
NWNCICFLDPISRDTLYPQ | 8.489 ± 0.046
FNKVYMSSIVASKVVKMRLI | -0.476 ± 0.75
KFIVWTFWSYLLTATRM | 0.157 ± 0.79
ILYMWWVRPLVQAQENRRRY | -0.089 ± 0.39
WMFMNLVGVMFDGHGPGGSA | 1.66 ± 0.28
STERKYLSLDKSWNVRLVLF | 1.61 ± 0.23
LMNICRNVARG | -0.876 ± 0.71
NNYLCAEWFVTGVSTPLTTS | 0.735 ± 0.55
KDQKISVIMFILMRVPLY | 0.546 ± 0.45
CCLIHS | 1.38 ± 0.5
NAQWKHETHIFCSAMFVTEC | 0.878 ± 0.45
VKPLKHPSGYYAMRRFVYNI | -0.566 ± 1.2
AMNFWRKILIFSELVYG | 2.19 ± 0.5
YLGTFN | inactive

Substance | amyloid nucleation score
TVDKTYFFYIVDCNVDKPGD | 1.08 ± 0.59
SYKNVGRV | 0.273 ± 0.86
AARVGVVVF | 0.065 ± 0.41
RSLFRECEKIVDRHSMSNFH | 0.445 ± 0.4
QSSLGNLTCANFWVTTTEVG | inactive
KDCDMIGDSVYGSKFVTREM | 0.503 ± 0.34
SSWYVITATFIKDCGMTARR | 4.03 ± 0.082
TSYNIMFQ | -0.584 ± 1.2
VLSSGESIRNTAINVEVEHQ | 0.449 ± 0.38
DWFAECVFLRRTLESY | -0.601 ± 0.4
YIPQSPDDSFWEVMFYLFLS | -0.43 ± 1.2
PYYHHVGVGYAFYVICVRAF | inactive
FEGAW | -0.187 ± 1
TLCQFSSARACYAWVVFPTY | 1.19 ± 0.21
SMKCRNGILWFQRLVYLLLS | -0.747 ± 0.56
CFSLWY | 0.089 ± 0.29
VGRTNFYCYWFPCRSLDLLS | 5.8 ± 0.046
TEGYVFKCVGKMFLFRFSFA | -0.114 ± 0.36
KNYDGCHMSYVGSRGWITSL | 0.215 ± 1.4
GLRVPPHDVLMSIARLDVSK | inactive
